The target in the experiment is microtubules of primary rat hippocampal neurons (rat (endogenous in primary hippocampal neurons)) (UniProt P68370).

With “GFP-tagged Tau lacking the microtubule-binding domain (delMTBD-Tau; PRR2-WT, MTBD deleted) (from UniProt P10636-6 1-383) (natural protein)”, the FRAP recovery plateau in rat neurons worked out at 0.873.

For the origin of these results see publication doi:10.1101/2025.11.11.687775.
